Further decrease in fluorescent intensity from the c-JUN:DNA complex and decrease in fluorescent intensity compared to DNA alone data for 1 substance are collected here from patent US20030022853A1.

The target in test [1] is pure human c-JUN protein (full length, Promega) (human) (UniProt P05412). Kind of test: laser fluorescence quenching assay, 1 µg antibody + 1 µg c-JUN + 0.075 pmole JD1F/2F, 50 mM NaCl.
Test [2] shares this target. As to the kind of experiment: laser fluorescence quenching assay, 5 µg antibody + 1 µg c-JUN + 0.075 pmole JD1F/2F, 50 mM NaCl.
Test [3] has the same target. As to the kind of experiment: laser fluorescence quenching assay, 750 ng antibody + 250 ng c-JUN + 0.075 pmole JD1F/2F, 50 mM NaCl.
Test [4] has the same target. Kind of test: laser fluorescence quenching assay, 1 µg antibody + 1 µg c-JUN + 0.075 pmole JD1F/2F, 50 mM NaCl (c-JUN:DNA alone 25%).
Test [5] shares this target. As to the kind of experiment: laser fluorescence quenching assay, 5 µg antibody + 1 µg c-JUN + 0.075 pmole JD1F/2F, 50 mM NaCl (c-JUN:DNA alone 25%).
For test [6] the target is unchanged. As to the kind of experiment: laser fluorescence quenching assay, 750 ng antibody + 250 ng c-JUN + 0.075 pmole JD1F/2F, 50 mM NaCl (c-JUN:DNA alone 11%).

Chain of UniProt P05412 (P05412 whole entry): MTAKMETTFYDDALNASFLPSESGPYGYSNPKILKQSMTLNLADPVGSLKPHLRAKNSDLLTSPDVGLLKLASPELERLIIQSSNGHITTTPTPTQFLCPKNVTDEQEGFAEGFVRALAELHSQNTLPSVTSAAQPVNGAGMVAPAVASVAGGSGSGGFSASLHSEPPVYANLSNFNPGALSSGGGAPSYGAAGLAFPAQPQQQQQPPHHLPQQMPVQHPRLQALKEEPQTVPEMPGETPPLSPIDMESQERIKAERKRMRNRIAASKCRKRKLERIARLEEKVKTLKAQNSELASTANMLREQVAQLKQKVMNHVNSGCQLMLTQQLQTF

Regarding “monoclonal IgG1 antibody, c-JUN (KM-1) (Santa Cruz Biotechnology)”, the further decrease in fluorescent intensity from the c-JUN:DNA complex was determined as 12% in test [1], 17% in test [2] and 16% in test [3]. Further, the decrease in fluorescent intensity compared to DNA alone in test [4] was 37%; in test [5], 42%; in test [6], 27%.
